Assay [1] has as its system 3T3-L1 adipocytes. Description: Glycerol and free fatty acid released in culture supernatant. It is filed as cell-based, mouse. The following applies: rAIM 5 μg/ml, day 2, day 4, day 6. The protocol: rAIM was loaded (5 μg/ml) on 3T3-L1 adipocytes, the amount of glycerol or free fatty acid released in the culture supernatant was measured on day 2, day 4, and day 6. After rAIM loading, the cells were washed twice with PBS, and incubated in a serum-free medium (FreeStyle™ 293 Expression Medium; Invitrogen) for 5 hr. The buffer was recovered, and the measurement was performed using a glycerol assay kit and a fatty acid assay kit (both Bio Vision Inc.) and according to the manual.

Assay [2] relates to AIM-/- mice. Description: mRNA level of markers in visceral fat tissue by QPCR. Type of assay: in vivo, mouse. The following applies: rAIM administration group relative to BSA group, standardized with GAPDH. How it is done:
The mRNA level of adipocyte marker, preadipocyte marker, and lipid droplet formation-related genes in the RNA extracted from visceral fat tissue of the mice of the rAIM administration group and BSA administration group was measured by QPCR. The measurement values were standardized with the measurement values of GAPDH, and shown by an expression level relative to that of the adipose tissue administered with BSA.

The target in assay [3] is FAS (Mus musculus, UniProt P19096). Description: FAS activity of adipose tissue of AIM-/- mice after intraadipose topical injection. It is filed as in vivo. The arrangement: endogenous in cells; host or cells: 3T3-L1 adipocytes (treated cells, then lysed). The following applies: AIM-/- mice fed HFD 20 weeks, rAIM injected into adipose 3 hr before, versus BSA. The protocol: The influence of AIM on FAS activity of adipocyte or adipose tissue was examined. FAS activity was measured by the method of Kelley (Kelley et al., Biochem. J., 1986, 235:87-90) with slight modification. 3T3-L1 adipocytes, or lysates of adipose tissue of obese mice was mixed with acetyl-CoA and NADPH (0.2 M […] phosphate buffer [pH 7.0] containing 0.4 mM EDTA), and the mixture was placed in a spectrophotometer cuvette and maintained at 30° C. 20 μl of malonyl-CoA solution (0.2 mM) was added to start an enzyme reaction and decrease of OD was measured at a chart speed 2 cm/min. Based on the results, the enzyme activity of FAS was evaluated using the molar extinction coefficient of […] NADPH as 6220.
First, the FAS activity of 3T3-L1 cells treated for 6 days in the presence or absence of rAIM (5 μg/ml), and in the presence of C75 (25 μM) was measured. Moreover, the FAS activity of adipose tissues of AIM^+/+ mice and AIM^−/− mice and the FAS activity of adipose tissue of AIM^−/− mice administered with rAIM or BSA 3 hr before by intraadipose topical injection are shown in FIGS. 28 and 29, respectively.
All mice were fed with HFD for 20 weeks. The samples were dissolved (lysed) and the FAS activity was measured. The data was converted to that based on FAS protein, according to the results of WB performed using the same sample.

FAS, sequence (P19096 whole entry): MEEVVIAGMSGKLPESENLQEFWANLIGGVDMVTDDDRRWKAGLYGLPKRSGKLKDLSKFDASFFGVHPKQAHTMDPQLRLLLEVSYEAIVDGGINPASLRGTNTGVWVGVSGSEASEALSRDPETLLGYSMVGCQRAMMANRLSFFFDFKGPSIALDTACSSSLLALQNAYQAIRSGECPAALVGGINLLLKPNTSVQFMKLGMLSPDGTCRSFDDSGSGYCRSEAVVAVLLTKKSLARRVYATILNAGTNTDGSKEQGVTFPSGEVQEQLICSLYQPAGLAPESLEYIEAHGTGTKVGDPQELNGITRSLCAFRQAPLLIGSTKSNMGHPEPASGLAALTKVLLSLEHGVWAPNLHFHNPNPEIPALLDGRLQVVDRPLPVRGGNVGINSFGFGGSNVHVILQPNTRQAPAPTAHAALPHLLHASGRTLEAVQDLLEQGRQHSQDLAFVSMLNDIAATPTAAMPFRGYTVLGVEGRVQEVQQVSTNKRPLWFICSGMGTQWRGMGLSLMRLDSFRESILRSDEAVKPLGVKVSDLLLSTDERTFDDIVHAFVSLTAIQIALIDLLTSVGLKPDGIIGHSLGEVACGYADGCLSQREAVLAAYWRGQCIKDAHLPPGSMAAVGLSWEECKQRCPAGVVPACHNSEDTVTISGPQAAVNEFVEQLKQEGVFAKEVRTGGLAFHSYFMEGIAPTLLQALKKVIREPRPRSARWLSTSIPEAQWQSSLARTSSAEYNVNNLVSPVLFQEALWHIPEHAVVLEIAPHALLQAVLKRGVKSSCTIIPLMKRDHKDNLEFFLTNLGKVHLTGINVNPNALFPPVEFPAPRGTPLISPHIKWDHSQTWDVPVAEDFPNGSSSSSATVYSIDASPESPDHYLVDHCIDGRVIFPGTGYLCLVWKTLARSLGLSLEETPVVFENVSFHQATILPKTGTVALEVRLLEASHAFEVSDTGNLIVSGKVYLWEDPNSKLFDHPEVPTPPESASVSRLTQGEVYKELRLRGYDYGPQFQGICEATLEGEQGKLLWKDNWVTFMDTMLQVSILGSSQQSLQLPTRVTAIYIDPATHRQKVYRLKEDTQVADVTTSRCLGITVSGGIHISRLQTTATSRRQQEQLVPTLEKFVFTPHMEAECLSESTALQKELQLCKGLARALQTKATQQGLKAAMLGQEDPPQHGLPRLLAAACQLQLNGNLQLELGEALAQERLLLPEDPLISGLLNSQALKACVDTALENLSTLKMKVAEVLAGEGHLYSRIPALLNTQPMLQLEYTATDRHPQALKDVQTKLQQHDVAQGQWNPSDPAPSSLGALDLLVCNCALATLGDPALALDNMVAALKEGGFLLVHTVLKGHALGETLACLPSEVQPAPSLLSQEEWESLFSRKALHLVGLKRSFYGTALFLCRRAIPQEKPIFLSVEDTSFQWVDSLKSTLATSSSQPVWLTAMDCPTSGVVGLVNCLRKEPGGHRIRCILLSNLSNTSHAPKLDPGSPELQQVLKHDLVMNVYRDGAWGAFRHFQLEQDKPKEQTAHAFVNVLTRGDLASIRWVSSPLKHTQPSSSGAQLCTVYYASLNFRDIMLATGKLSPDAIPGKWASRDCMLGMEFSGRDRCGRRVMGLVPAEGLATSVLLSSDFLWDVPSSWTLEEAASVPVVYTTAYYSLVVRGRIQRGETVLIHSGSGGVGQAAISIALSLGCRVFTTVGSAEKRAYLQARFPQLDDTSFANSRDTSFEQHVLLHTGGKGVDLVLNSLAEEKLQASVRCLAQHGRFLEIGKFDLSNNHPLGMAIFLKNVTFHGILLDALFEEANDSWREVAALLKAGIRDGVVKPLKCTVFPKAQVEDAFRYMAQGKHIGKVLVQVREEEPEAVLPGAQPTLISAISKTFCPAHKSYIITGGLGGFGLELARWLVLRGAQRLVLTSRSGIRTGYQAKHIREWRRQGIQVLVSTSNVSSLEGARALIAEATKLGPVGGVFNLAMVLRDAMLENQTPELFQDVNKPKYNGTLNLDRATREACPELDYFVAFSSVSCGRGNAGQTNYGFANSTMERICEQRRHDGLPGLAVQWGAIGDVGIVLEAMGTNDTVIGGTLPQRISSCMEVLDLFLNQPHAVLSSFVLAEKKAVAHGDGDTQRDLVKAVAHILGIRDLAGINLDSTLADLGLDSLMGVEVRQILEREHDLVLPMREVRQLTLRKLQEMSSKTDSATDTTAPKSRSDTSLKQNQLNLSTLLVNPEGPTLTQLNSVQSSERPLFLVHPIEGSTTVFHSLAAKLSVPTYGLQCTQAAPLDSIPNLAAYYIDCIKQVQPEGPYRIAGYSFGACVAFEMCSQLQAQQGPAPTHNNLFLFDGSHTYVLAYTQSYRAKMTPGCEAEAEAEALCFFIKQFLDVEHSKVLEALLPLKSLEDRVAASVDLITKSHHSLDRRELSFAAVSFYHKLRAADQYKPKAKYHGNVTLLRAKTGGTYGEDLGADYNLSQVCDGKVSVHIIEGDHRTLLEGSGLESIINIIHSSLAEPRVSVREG

B1: rAIM: recombinant AIM protein (rAIM) of mouse, HA-tagged, prepared in HEK293T cells (protein)
chain: ESPTKVQLVGGAHRCEGRVEVEHNGQWGTVCDDGWDRRDVAVVCRELNCGAVIQTPRGASYQPPASEQRVLIQGVDCNGTEDTLAQCELNYYVFDCSHEEDAGAQCENPDSDLLFIPEDVRLVDGPGHCQGRVEVLHQSQWSTVCKAGWNLQVSKVVCRQLGCGRALLTYGSCNKNTQGKGPIWMGKMSCSGQEANLRSCLLSRLENNCTHGEDTWMECEDPFELKLVGGDTPCSGRLEVLHKGSWGSVCDDNWGEKEDQVVCKQLGCGKSLHPSPKTRKIYGPGAGRIWLDDVNCSGKEQSLEFCRHRLWGYHDCTHKEDVEVICTDFDV
modifications: left off: small tags and cut ends
notes: recombinant AIM protein (rAIM) of mouse, HA-tagged, prepared in HEK293T cells
As to B1, in assay [1], the “amount of free fatty acids in the culture supernatant” value is “significantly increased” and the “amount of glycerol in the culture supernatant” value is on record as “significantly increased”. In assay [2], the “mRNA level of Adipophilin in visceral fat” value was “low”, the “mRNA level of FSP27 in visceral fat” value was “low”, the “mRNA level of PREF-1 in visceral fat” value is given as “increased” and the “mRNA level of Perilipin in visceral fat” value is listed as “low”. Besides, in assay [2], the “mRNA of C/EBPα in visceral fat” value was “did not show difference”, the “mRNA of GLUT4 in visceral fat” value was “did not show difference” and the “mRNA of PPARγ2 in visceral fat” value is “did not show difference”. Further, the “FAS activity in adipose tissue” value in assay [3] is reported as “decreased”.

The values are drawn from patent US20130115220A1, “METHOD FOR PREVENTION OR TREATMENT OF METABOLIC SYNDROME” (DAINIPPON SUMITOMO PHARMA CO., LTD., priority 2010, published 2013).
